Reference: patent publication US20250115654A1, “PHARMACEUTICAL COMPOSITION OF GLP-1 RECEPTOR AND GIP RECEPTOR DUAL AGONIST, AND USE THEREOF” (FUJIAN SHENGDI PHARMACEUTICAL CO., LTD., priority 2021, published 2025)
Like-named read-outs stand apart in the source and are kept apart here. Numbered stars: 1 amine (or outer) side, 2 acyl side, 3 side chain; on linkers, the order of the positions; unused ones are H or OH. Square brackets hold non-standard residues; d marks the D form. Side chains are listed from the residue outwards. Peptide text beside a SMILES is read from it. * marks the point of attachment. C20 diacid = O=C(O)CCCCCCCCCCCCCCCCCCC(=O)*; γGlu = O=C(O)[C@H](CCC(=O)[*:2])N[*:1]; AEEA = NCCOCCOCC(=O)O; Aib = CC(C)(N)C(=O)O

How the values were obtained:
human GIPR = target: T1, human GIPR (Homo sapiens, UniProt P48546); experiment: Agonist activity against GIPR, cAMP HTRF in CHO-K1 cells transiently transfected with hGIP receptor; format: cell-based
T1 construct: expressed in transfected cells; host or cells: wild-type CHO-K1, transient transfection with hGIP receptor plasmid (Fugene HD)
T1 sequence (P48546 22-466): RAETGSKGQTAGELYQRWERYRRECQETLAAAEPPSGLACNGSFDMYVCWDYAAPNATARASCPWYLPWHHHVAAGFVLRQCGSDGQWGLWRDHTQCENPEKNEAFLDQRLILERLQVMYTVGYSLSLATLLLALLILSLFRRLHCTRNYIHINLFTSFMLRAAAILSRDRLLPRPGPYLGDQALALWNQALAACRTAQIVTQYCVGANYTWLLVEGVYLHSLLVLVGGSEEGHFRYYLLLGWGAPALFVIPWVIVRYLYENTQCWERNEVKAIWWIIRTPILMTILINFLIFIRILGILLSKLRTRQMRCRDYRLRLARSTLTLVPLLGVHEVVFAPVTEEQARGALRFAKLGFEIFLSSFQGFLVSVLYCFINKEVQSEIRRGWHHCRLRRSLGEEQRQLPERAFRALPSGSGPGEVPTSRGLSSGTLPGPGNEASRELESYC
Protocol: Wild-type CHO-K1 cells were collected, and the cell suspension was adjusted to an appropriate density, seeded in a 6-well plate at 2 mL/well, and placed in an incubator at 37° C. with 5% CO2 for adherence culture overnight.

[1] = Stability of compounds in human plasma (LC-MS); format: in vitro ADME; conditions: human, read-out: Relative content of compounds retained in plasma (%)
Protocol: 5 μL of each of samples at concentrations of 20 ng/mL, 50 ng/mL, 100 ng/mL, 200 ng/mL, 500 ng/mL, 1000 ng/mL, 2000 ng/mL, 5000 ng/mL, and 10000 ng/mL was added to 45 L of human plasma. The content of the compounds in the samples was determined by the LC-MS method and a standard curve was formed. 5 μL of a 1 mg/mL polypeptide solution was added to 45 μL of human plasma. […] With the content at 0 min as the standard (100%), the relative content of the retained compounds in the samples at other time points was calculated.

[2] = target: T2, human glucose-dependent insulinotropic polypeptide receptor (GIPR) (human, UniProt P48546); experiment: cell-based or functional assay
T2 sequence: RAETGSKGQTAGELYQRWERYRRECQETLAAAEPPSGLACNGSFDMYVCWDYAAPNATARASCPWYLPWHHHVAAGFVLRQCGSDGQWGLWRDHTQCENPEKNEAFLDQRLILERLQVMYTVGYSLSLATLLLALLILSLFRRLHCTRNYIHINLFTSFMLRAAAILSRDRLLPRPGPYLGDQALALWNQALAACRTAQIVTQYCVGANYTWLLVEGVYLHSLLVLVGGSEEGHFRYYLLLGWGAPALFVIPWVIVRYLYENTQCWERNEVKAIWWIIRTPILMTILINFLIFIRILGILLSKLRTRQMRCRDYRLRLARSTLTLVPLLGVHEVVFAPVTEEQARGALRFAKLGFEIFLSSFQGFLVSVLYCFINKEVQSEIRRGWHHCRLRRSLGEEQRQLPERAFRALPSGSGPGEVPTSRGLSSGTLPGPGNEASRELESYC

[3] = target: human glucagon-like peptide-1 receptor (GLP-1R) (human, UniProt P43220); experiment: cell-based or functional assay
[4] = Table 6 run, read-out: Activity against human GIPR (EC50 nM)

Molecule	Activity against human GIPR (EC50 nM); cAMP, HTRF [2] [nM]	Activity against human GLP-1R (EC50 nM); cAMP, HTRF [3] [nM]	other results
CC[C@H](C)[C@H](NC(=O)[C@H](CCCNC(=N)N)NC(=O)[C@H](CCC(=O)O)NC(=O)[C@H](CCCCNC(=O)COCCOCCNC(=O)COCCOCCNC(=O)CC[C@H](NC(=O)CCCCCCCCCCCCCCCCCCC(=O)O)C(=O)O)NC(=O)[C@H](Cc1ccc(O)cc1)NC(=O)[C@@H](NC(=O)[C@H](CO)NC(=O)[C@H](Cc1ccc(O)cc1)NC(=O)[C@H](CC(=O)O)NC(=O)[C@H](CO)NC(=O)[C@@H](NC(=O)[C@H](Cc1ccccc1)NC(=O)[C@@H](NC(=O)CNC(=O)[C@H](CCC(=O)O)NC(=O)C(C)(C)NC(=O)[C@@H](N)Cc1ccc(O)cc1)[C@@H](C)O)[C@@H](C)O)[C@@H](C)CC)C(=O)N[C@@H](C)C(=O)N[C@@H](C)C(=O)N[C@@H](CCC(N)=O)C(=O)N[C@@H](CCC(=O)O)C(=O)N[C@@H](Cc1ccccc1)C(=O)N[C@H](C(=O)N[C@@H](CC(N)=O)C(=O)N[C@@H](Cc1c[nH]c2ccccc12)C(=O)N[C@@H](CC(C)C)C(=O)N[C@H](C(=O)N[C@@H](C)C(=O)NCC(=O)NCC(=O)N1CCC[C@H]1C(=O)N[C@@H](CO)C(=O)N[C@@H](CO)C(=O)NCC(=O)N[C@@H](C)C(=O)N1CCC[C@H]1C(=O)N1CCC[C@H]1C(=O)N1CCC[C@H]1C(=O)N[C@@H](CO)C(N)=O)[C@@H](C)CC)C(C)C [Compound 13] (H-Y[Aib]EGTFTSDYSIYK([AEEA-AEEA-γGlu-C20 diacid])ERIAAQEFVNWLIAGGPSSGAPPPS-NH2)			EC50 (human GIPR; [4]): 0.13 nM
CC[C@H](C)[C@H](NC(=O)[C@H](CC(C)C)NC(=O)[C@H](Cc1c[nH]c2ccccc12)NC(=O)[C@H](CCC(N)=O)NC(=O)[C@@H](NC(=O)[C@H](Cc1ccccc1)NC(=O)[C@H](C)NC(=O)[C@H](CCCCNC(=O)COCCOCCNC(=O)COCCOCCNC(=O)CC[C@H](NC(=O)CCCCCCCCCCCCCCCCCCC(=O)O)C(=O)O)NC(=O)[C@H](CCC(N)=O)NC(=O)[C@H](C)NC(=O)[C@@H](NC(=O)[C@H](CCCCN)NC(=O)[C@H](CC(=O)O)NC(=O)[C@H](CC(C)C)NC(=O)C(C)(C)NC(=O)[C@@H](NC(=O)[C@H](CO)NC(=O)[C@H](Cc1ccc(O)cc1)NC(=O)[C@H](CC(=O)O)NC(=O)[C@H](CO)NC(=O)[C@@H](NC(=O)[C@H](Cc1ccccc1)NC(=O)[C@@H](NC(=O)CNC(=O)[C@H](CCC(=O)O)NC(=O)C(C)(C)NC(=O)[C@@H](N)Cc1ccc(O)cc1)[C@@H](C)O)[C@@H](C)O)[C@@H](C)CC)[C@@H](C)CC)C(C)C)C(=O)N[C@@H](C)C(=O)NCC(=O)NCC(=O)N1CCC[C@H]1C(=O)N[C@@H](CO)C(=O)N[C@@H](CO)C(=O)NCC(=O)N[C@@H](C)C(=O)N1CCC[C@H]1C(=O)N1CCC[C@H]1C(=O)N1CCC[C@H]1C(=O)N[C@@H](CO)C(N)=O [LY3298176, reference compound]			remaining at 1 h, 0.1 mg/mL ([1]; 60 min): 115%; remaining at 2 h, 0.1 mg/mL ([1]; 120 min): 118%; remaining at 4 h, 0.1 mg/mL ([1]; 240 min): 113%; EC50 (human GIPR): 0.031 nM
CC[C@H](C)[C@H](NC(=O)[C@H](CCCNC(=N)N)NC(=O)[C@H](CCC(=O)O)NC(=O)[C@H](CCCCNC(=O)COCCOCCNC(=O)COCCOCCNC(=O)CC[C@H](NC(=O)CCCCCCCCCCCCCCCCCCC(=O)O)C(=O)O)NC(=O)[C@H](Cc1ccc(O)cc1)NC(=O)[C@@H](NC(=O)[C@H](CO)NC(=O)[C@H](Cc1ccc(O)cc1)NC(=O)[C@H](CC(=O)O)NC(=O)[C@H](CO)NC(=O)[C@@H](NC(=O)[C@H](Cc1ccccc1)NC(=O)[C@@H](NC(=O)CNC(=O)[C@H](CCC(=O)O)NC(=O)C(C)(C)NC(=O)[C@@H](N)Cc1ccc(O)cc1)[C@@H](C)O)[C@@H](C)O)[C@@H](C)CC)C(=O)N[C@@H](C)C(=O)N[C@@H](C)C(=O)N[C@@H](CCC(N)=O)C(=O)N[C@@H](CCC(=O)O)C(=O)N[C@@H](Cc1ccccc1)C(=O)N[C@H](C(=O)N[C@@H](CC(N)=O)C(=O)N[C@@H](Cc1c[nH]c2ccccc12)C(=O)N[C@@H](CC(C)C)C(=O)N[C@@H](CC(C)C)C(=O)N[C@@H](C)C(=O)NCC(=O)NCC(=O)N1CCC[C@H]1C(=O)N[C@@H](CO)C(=O)N[C@@H](CO)C(=O)NCC(=O)N[C@@H](C)C(=O)N1CCC[C@H]1C(=O)N1CCC[C@H]1C(=O)N1CCC[C@H]1C(=O)N[C@@H](CO)C(N)=O)C(C)C [Compound 17] (H-Y[Aib]EGTFTSDYSIYK([AEEA-AEEA-γGlu-C20 diacid])ERIAAQEFVNWLLAGGPSSGAPPPS-NH2)			EC50 (human GIPR; [4]): 0.11 nM
CC[C@H](C)[C@H](NC(=O)[C@H](CCCCNC(=O)COCCOCCNC(=O)COCCOCCNC(=O)CC[C@H](NC(=O)CCCCCCCCCCCCCCCCCCC(=O)O)C(=O)O)NC(=O)[C@H](CCC(=O)O)NC(=O)[C@H](CC(C)C)NC(=O)[C@H](Cc1ccc(O)cc1)NC(=O)[C@@H](NC(=O)[C@H](CO)NC(=O)[C@H](Cc1ccc(O)cc1)NC(=O)[C@H](CC(=O)O)NC(=O)[C@H](CO)NC(=O)[C@@H](NC(=O)[C@H](Cc1ccccc1)NC(=O)[C@@H](NC(=O)CNC(=O)[C@H](CCC(=O)O)NC(=O)C(C)(C)NC(=O)[C@@H](N)Cc1ccc(O)cc1)[C@@H](C)O)[C@@H](C)O)[C@@H](C)CC)C(=O)N[C@@H](C)C(=O)N[C@@H](C)C(=O)N[C@@H](CCC(N)=O)C(=O)N[C@@H](CCC(=O)O)C(=O)N[C@@H](Cc1ccccc1)C(=O)N[C@H](C(=O)N[C@@H](CC(N)=O)C(=O)N[C@@H](Cc1c[nH]c2ccccc12)C(=O)N[C@@H](CC(C)C)C(=O)N[C@H](C(=O)N[C@@H](C)C(=O)NCC(=O)NCC(=O)N1CCC[C@H]1C(=O)N[C@@H](CO)C(=O)N[C@@H](CO)C(=O)NCC(=O)N[C@@H](C)C(=O)N1CCC[C@H]1C(=O)N1CCC[C@H]1C(=O)N1CCC[C@H]1C(=O)N[C@@H](CO)C(N)=O)[C@@H](C)CC)[C@@H](C)CC [Compound 10] (H-Y[Aib]EGTFTSDYSIYLEK([AEEA-AEEA-γGlu-C20 diacid])IAAQEFINWLIAGGPSSGAPPPS-NH2)			EC50 (human GIPR; [4]): 0.056 nM
H-Y[Aib]EGTFTSDYSIYLEK([AEEA-AEEA-γGlu-C20‑OH])IAAQEFINWLIAGGPSSGAPPPS-NH2 [compound 10# H-YAibEGTFTSDYSIYLEK(OEG-OEG-yGlu-C20-OH)IAAQEFINWLIAGGPSSGAPPPS-NH2]	0.056	0.065	
H-Y[Aib]EGTFTSDYSIYLEK([AEEA-AEEA-γGlu-C20‑OH])IAAQEFVNWLIAGGPSSGAPPPS-NH2 [compound 9# H-YAibEGTFTSDYSIYLEK(OEG-OEG-yGlu-C20-OH)IAAQEFVNWLIAGGPSSGAPPPS-NH2]	0.04	0.049	
H-Y[Aib]EGTFTSDYSIYK([AEEA-AEEA-γGlu-C20‑OH])ERIAAQEFVNWLLAGGPSSGAPPPS-NH2 [compound 17# H-YAibEGTFTSDYSIYK(OEG-OEG-yGlu-C20-OH)ERIAAQEFVNWLLAGGPSSGAPPPS-NH2]	0.11	0.022	
H-Y[Aib]EGTFTSDYSIYK([AEEA-AEEA-γGlu-C20‑OH])EKIAAQEFVNWLIAGGPSSGAPPPS-NH2 [compound 12# H-YAibEGTFTSDYSIYK(OEG-OEG-yGlu-C20-OH)EKIAAQEFVNWLIAGGPSSGAPPPS-NH2]	0.17	0.03	
H-Y[Aib]EGTFTSDYSIYK([AEEA-AEEA-γGlu-C20‑OH])ERIAAQEFINWLIAGGPSSGAPPPS-NH2 [compound 15# H-YAibEGTFTSDYSIYK(OEG-OEG-yGlu-C20-OH)ERIAAQEFINWLIAGGPSSGAPPPS-NH2]	0.23	0.015	
H-Y[Aib]EGTFTSDYSIYK([AEEA-AEEA-γGlu-C20‑OH])ERIAAQEFVNWLIAGGPSSGAPPPS-NH2 [compound 13# H-YAibEGTFTSDYSIYK(OEG-OEG-yGlu-C20-OH)ERIAAQEFVNWLIAGGPSSGAPPPS-NH2]	0.13	0.017	
H-Y[Aib]EGTFTSDYSIYK([AEEA-AEEA-γGlu-C20‑OH])EKIAAQEFVNWLLAGGPSSGAPPPS-NH2 [compound 18# H-YAibEGTFTSDYSIYK(OEG-OEG-yGlu-C20-OH)EKIAAQEFVNWLLAGGPSSGAPPPS-NH2]	0.06	0.013	
H-Y[Aib]EGTFTSDYSIYK([AEEA-AEEA-γGlu-C20‑OH])EKIAAQEFINWLLAGGPSSGAPPPS-NH2 [compound 16# H-YAibEGTFTSDYSIYK(OEG-OEG-yGlu-C20-OH)EKIAAQEFINWLLAGGPSSGAPPPS-NH2]	0.095	0.029	
H-Y[Aib]EGTFTSDYSIYK([AEEA-AEEA-γGlu-C20‑OH])EKIAAQEFINWLIAGGPSSGAPPPS-NH2 [compound 14# H-YAibEGTFTSDYSIYK(OEG-OEG-yGlu-C20-OH)EKIAAQEFINWLIAGGPSSGAPPPS-NH2]	0.13	0.013	
